According to US20240102992A1:

Target: canine CD20 with C-terminal FLAG tag, expressed on A20/cCD20/luc or EL-4/cCD20/luc cells (dog) (UniProt Q3C2E2)
Assay: cell-based or functional assay

UniProt Q3C2E2, sequence (Q3C2E2 other isoform, or with tags, fused parts or gaps): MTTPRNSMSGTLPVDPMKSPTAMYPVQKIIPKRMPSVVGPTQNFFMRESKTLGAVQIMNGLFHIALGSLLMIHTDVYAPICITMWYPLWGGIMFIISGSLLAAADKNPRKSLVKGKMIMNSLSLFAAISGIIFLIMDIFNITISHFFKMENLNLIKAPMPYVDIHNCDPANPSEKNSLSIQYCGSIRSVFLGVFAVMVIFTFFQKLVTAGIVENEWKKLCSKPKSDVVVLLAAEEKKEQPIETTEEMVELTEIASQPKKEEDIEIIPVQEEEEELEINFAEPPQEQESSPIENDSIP

Dog IgG antibody (Jackson ImmunoResearch Laboratories, Inc.)
cell-mediated cytotoxicity activity (lysis rate); targets A20/cCD20/luc and EL-4/cCD20/luc, effectors NK-92/cCD16γ, E/T 10:1: < 25%
